Measured values from PMC9652321, “Structural basis of human SNAPc recognizing proximal sequence element of snRNA promoter”.
Substitutions are numbered along the chain they refer to.

Columns and labels:
Assay in all cases: SPR; EMSA: 100 mM KCl, 25 mM HEPES-K pH 7.6, 12.5 mM MgCl2, 10 uM ZnCl2, 0.1 mM EDTA, 10% glycerol, 3 mM DTT, 0.5 mM PMSF, 50 nM DNA, RT 30 min; SPR: 100 mM KCl, 12.5 mM MgCl2, 10 uM ZnCl2, 0.1 mM EDTA, 0.05% P20, 25 C
Conditions in all cases: protein: recombinant; tags: as P1; copies: 1;1;1;1
[1] = biological target: T1, mSNAPc#2 SNAP190-Y389A (Homo sapiens, UniProt Q5SXM2;Q92966;Q16533;O75971 1-505;1-411;1-268;1-98, Y389A)
T1 sequence 1: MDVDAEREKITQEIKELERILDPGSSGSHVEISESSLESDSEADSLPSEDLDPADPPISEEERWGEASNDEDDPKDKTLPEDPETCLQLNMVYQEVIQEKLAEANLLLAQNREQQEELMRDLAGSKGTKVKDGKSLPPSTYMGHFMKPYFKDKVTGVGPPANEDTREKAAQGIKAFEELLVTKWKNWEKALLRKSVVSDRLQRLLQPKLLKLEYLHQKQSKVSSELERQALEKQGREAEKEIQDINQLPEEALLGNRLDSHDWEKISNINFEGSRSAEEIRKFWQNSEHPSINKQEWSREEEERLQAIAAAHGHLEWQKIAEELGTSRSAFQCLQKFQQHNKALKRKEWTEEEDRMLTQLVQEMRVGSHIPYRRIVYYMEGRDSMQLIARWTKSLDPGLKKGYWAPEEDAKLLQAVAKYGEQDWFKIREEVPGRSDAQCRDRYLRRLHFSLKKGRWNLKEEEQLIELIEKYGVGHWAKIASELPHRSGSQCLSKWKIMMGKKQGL
T1 sequence 2: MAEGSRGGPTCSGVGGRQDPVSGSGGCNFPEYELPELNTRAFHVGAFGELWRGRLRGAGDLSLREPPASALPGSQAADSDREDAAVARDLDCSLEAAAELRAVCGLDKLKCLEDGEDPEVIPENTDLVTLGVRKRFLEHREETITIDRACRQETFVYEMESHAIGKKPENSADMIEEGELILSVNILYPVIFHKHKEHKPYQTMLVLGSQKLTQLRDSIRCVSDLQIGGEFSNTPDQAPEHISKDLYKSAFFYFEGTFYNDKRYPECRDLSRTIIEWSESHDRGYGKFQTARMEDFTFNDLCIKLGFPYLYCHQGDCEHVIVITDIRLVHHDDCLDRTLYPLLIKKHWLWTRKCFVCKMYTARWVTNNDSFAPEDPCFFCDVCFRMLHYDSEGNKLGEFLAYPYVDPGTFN
T1 sequence 3: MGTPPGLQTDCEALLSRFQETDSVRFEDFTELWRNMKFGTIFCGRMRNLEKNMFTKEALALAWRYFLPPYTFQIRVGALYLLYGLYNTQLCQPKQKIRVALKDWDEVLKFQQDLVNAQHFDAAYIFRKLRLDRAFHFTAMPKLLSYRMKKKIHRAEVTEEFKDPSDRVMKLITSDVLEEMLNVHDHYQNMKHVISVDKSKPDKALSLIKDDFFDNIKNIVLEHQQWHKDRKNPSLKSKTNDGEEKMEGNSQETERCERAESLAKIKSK
T1 sequence 4: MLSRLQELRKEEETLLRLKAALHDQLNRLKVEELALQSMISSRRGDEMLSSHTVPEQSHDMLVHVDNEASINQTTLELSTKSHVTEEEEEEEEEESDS

[2] = biological target: T2, mSNAPc#2 2Mu (Homo sapiens, UniProt Q5SXM2;Q92966;Q16533;O75971 1-505;1-411;1-268;1-98, Y389A;R151A)
T2 sequence 1: T1 sequence 1
T2 sequence 2: T1 sequence 2 with R151A
T2 sequence 3: T1 sequence 3
T2 sequence 4: T1 sequence 4

[3] = biological target: T3, mSNAPc#2 SNAP190-R445A (Homo sapiens, UniProt Q5SXM2;Q92966;Q16533;O75971 1-505;1-411;1-268;1-98, R445A)
T3 sequence 1: T1 sequence 1 with A389Y, R445A
T3 sequence 2: T1 sequence 2
T3 sequence 3: T1 sequence 3
T3 sequence 4: T1 sequence 4

B1: 25 bp hU6-1 PSE (SPR) (dsDNA)
DNA 1: TGCTTACCGTAACTTGAAAGTATTT
DNA 2: AAATACTTTCAAGTTACGGTAAGCA
B1 showed a Kd [1] of 1080 nM, a Kd [2] of 1620 nM and a Kd [3] of 603 nM.
